Laboratory results from the DeepSol protein solubility set.

Experiment: soluble on expression in E. coli; label from the status in PepcDB or PDB records

Soluble on expression in E. coli, soluble:
MKMFLAQKGVPFEFVNAREDEEARKKVTALAGSPTAGVVLEWEGGTEVIRGVSPASLHAWLARYRGKEA
MDRINGLSDEIICHILSFLPTKESALTSVLSKRWRNLFALTPNLHLVDDDLEVGGCGQTLIDFVDRVLAVSSNLPIREFSIKC
MGHHHHHHSHMMQSVDVVIIGGGMVGLALAAALKESDLRIAVVENQLPEEALNPLPDVRVSALSRSSEIVLRNLNAWAGIEARRAAPYIAMEVWEQDSFARIEFKANEMTQPNLGHIVENRVIQLALFEQVQQQANVTLHVPATCQSIAVGESEAWLTLSNGQALSAKLVVGADGANSWLRRQMDIPLTHWDYGHSALVANVRTSDPHNKVARQIFTAQGPLAFLPMSEPHMSSIVWSTEPSRAEALLNMNDVQFNKALTAEFDARLGRCEVVGERQAFPLKMRYARDFVAPRVALVGDAAHTIHPLAGQGVNLGLLDAACLAQELLSLWQQNRDIGDERNLRHYERWRKAEAAKMIAAMQGFRDLFEGDNPAKKLIRGIGMRLVGQLPGAKDEIMKRALGLKGDLPELAKQVWLERAY
LADSSDVTEVENYMKANYDVPNNVYFGKAEGKNVIYVSLESLQSFIIDYKIDGKEVTPFLNKLAHDNETFYFDNFFHQTGQGKTSDAEFMMENSLYPLAQGSVFVNKAQNTLQSVPAILKSKNYTSATFHGNTQTFWNRNEMYKAEGIDKFFDSAYYDMNEENTKNYGMKDKPFFKESMPLLESLPQPFYTKFITLSNHFPFGMDEGDTDFPAGDFGDSVVDNYFQSAHYLDQSIEQFFNDLKKDGLYDKSIIVMYGDHYGISENHNKAMAKVLGKDEITDYDNAQLQRVPLFIHAAGVKGEKVHKYAGDVDVAPTILHLLGVDTKDYLMSGSDILSKEHREVIPFRNGDFISPKYTKISGKYYDTKTGKELDESEVDKSEDSLVKKELEMSDKIINGDLLRFYEPKGFKKVNPSDYDYTKHDEDSSETSKDNEDK
MNKLAVLYAEHIATLQKRTREIIERENLDGVVFHSGQAKRQFLDDMYYPFKVNPQFKAWLPVIDNPHCWIVANGTDKPKLIFYRPVDFWHKVPDEPNEYWADYFDIELLVKPDQVEKLLPYDKARFAYIGEYLEVAQALGFELMNPEPVMNFYHYHRAYKTQYELACMREANKIAVQGHKAARDAFFQGKSEFEIQQAYLLATQHSENDNPYGNIVALNENCAILHYTHFDRVAPATHRSFLIDAGANFNGYAADITRTYDFTGEGEFAELVATMKQHQIALMNQLAPGKLYGELHLDCHQRVAQTLSDFNIVDLSADEIVAKGITSTFFPHGLGHHIGLQVHDVGGFMADEQGAHQEPPEGHPFLRCTRKIEANQVFTIEPGLYFIDSLLGDLAATDNNQHINWDKVAELKPFGGIRIEDNIIVHEDSLENMTRELRLRLTTHSLRGLSAPQFSINDPAVMSEYSYPSEPLSYEEEIKKSTFIVHVRTRRILVRRRTLSPILIAVTPMPAITAGLM
GSDGDALLKPCKLGDMQCLSSATEQFLEKTSKGIPQYDIWPIDPLVVTSLDVIAPSDAGIVIRFKNLNITGLKNQQISDFQMDTKAKTVLLKTKADLHIVGDIVIELTEQSKSFTGLYTADTNVIGAVRYGYNLKNDDNGVQHFEVQPETFTCESIGEPKITLSSDLSSALEKDSGNNSLEPDMEPLKTLRQAAICKIAEACYISVVHNIRASAKILPASSFFENLN
MSLARFFQPKKHSTLDTKHQPVTIERLDHQGSGLAFLHKKPLFVDGALPGEEVLIQLTENKSKYARGQLIKVLKPSAERVAPFCAHYAQCGGCDLQHLDRAGQIHHKQQALSQLMVKFAGQSLALSAPVCSDDQGYRRRARLSLMWDKKTQQLQLGFRRKQSKAIVNVTHCPVLEPSLNALLPDLNALLSEWSQPERLGHVELVKGDNTRVLVLRHLGALIEQDQQRLTDFASQNQLTLYLMLEAGELQHVQGEAPYCEETGSRLSFLPSHFIQVNRAVNQHMVVQALNWLEVSPQERVLDLFCGLGNFTLPLAKQAQAVVGVEGVDEMVQHATHNAKLNQINNVAFYQANLEQDMTSASWAQQKFAKVLLDPARAGAEGIVDQLSALGAKRVVYVSCNPATLARDSQSLLSQGFRLEKLGMLDMFPHTSHLESMALFVKKGEGHHHHHH
PKVSVIMTSYNKSDYVAKSISSILSQTFSDFELFIMDDNSNEETLNVIRPFLNDNRVRFYQSDISGVKERTEKTRYAALINQAIEMAEGEYITYATDDNIYMPDRLLKMVRELDTHPEKAVIYSASKTYHLNENRDIVKETVRPAAQVTWNAPCAIDHCSVMHRYSVLEKVKEKFGSYWDESPAFYRIGDARFFWRVNHFYPFYPLDEELDLNYITDQSIHFQLFELEKNEFVRNLPPQRNCRELRESLKKLGMG
SKGYFETNRIQHIIVDEAQNFHTEDGNWCEKAKGITQGGKACPRMFWIFLDYFQTSHLKESGLPDFELQYPKEELTQVVRNGDKIAEFLQQELGKIRDNPPCSIPRASLNIVHEFKWSQSISGTLKIKYLTSEKMVSYVANKCDVFLSKGYSPQDIAVLFSTDREKKAYEHMFLREMRKKRRASQMNDTSVCHSNMFDRIRRFSGLERSIVFGINPIATEQPISHNLLICLASRAMKYLYILYALTPEGQSSTVAC

Soluble on expression in E. coli, not soluble:
MGSDKIHHHHHHMVQREKNVVNEQEIELIIGNSNSNFSGVTSTMLQVLSHEQSLINLRVMGKHHLPDESLSISFWQVANLSTKPLPKGKFRIFHARRVDEMIQALLLKYVFRVKLKIVFSSAAQRYRSGFTLWLTDRMDAVLAMCKASASYLHRKPDAIIYHGVKTDIYLPATDKSKAWQSLGLLPENSAKGKKGIAILGRVRKQKGVHLFVESCIDILKDRPDYTAVIVGSISSSNESFVNELQSKIDQAGLTERIVFAGEQNFADIPKIFSSLSLVVALSENEGFGLTILEAMSSGAAVLASEAGAWPEVVRQGVDGYVVPINDLDAVTEKMSLLLADEEKLMQMGRDGRERVLEHYSVEREAKELVTFFRSLM
MAHHHHHHMKGDAEVVDIGSEVLSVTFSNSGRRLAVLTMRQEISVYETVVPTEPIIIKTFQTSFDAAGGWNKTVGPRSANYNARFNVIAFSPEGEKIVAGGDSKWIVMYHATQGYMLKKWPVTTNQDVQGAEEQYQWRQMTEAGHVDDIDVDDADIHLRRGKIMEMPGSRHRHFATGKRQTALTARTMDLAFSCTGTEFVAATTDGLLMFSTRVARPKFQPLQLSANITTQQVRDQLDRGEPVMALMGAMKLGDKMLGVECLRRMPRDAIPVAVSSVPSVLFPLLVQWVSTEVEESRGIEQALLWAQSLMLHSNECTGGFAQERSAVIPALKVLQRGLQQHRALTDLAKENYFSLRYIIDMTKMQKDILQPAATVE
MGSDKIHHHHHHMLLHSAWPRLLCPSPKAKHLKDPAMFELDHDLAQDIVDRAMAILPCNVNVMDSQGLILGSGEPERINTRHEGAQLVLANGRIVELDTDAAKCLKGVQPGVNLPLMLDGRLMGVLGLTGDPQQVRTYGELVRMTAEMLLAQRNLQADQQWRRQRCDDLLALLLGGSGNSPRLLDEARQLGLKPQLPRIPCLFEITSGPPAEALAAWLMSRYPDSWCVSPARQSLLWCRPAGVALDELRLLERLQRHGWDIERLALGSAAQSLEQLRRGYRRVRDLLAYGREVLPSERLLSLQRYRLPALLWRHRNDDALDELLEPLQRIRAKDSSGQLLATLRAWCAHDGQSQSCADALGIHRNSLRYRLERIAELGEVDPLRLEGMLSLYLGLQLLPTD
MTQTASLFLQDSYREECLARITDVVEDGLLLDQTVFYPQGGGQAGDSGWLTLADGTRLRIADTRKGTEAGAGRDAILHIPAEGQATVLRAMKPGEVVLAQIDWVRRYRHMRLHTAAHMLCAVLPYPVNGCSITDEHARLDFVTSEPLSREAIDSALAAMVEAAHPVSIDTMSDDALRARPDLVRTMSVQPPMGAGQVRLVSIKDTDLQPCGGTHVANTEEVGVVRVSKMEKKSARTRRVVLVLG
MSLNVIDTLPAFRDYCSELASSHGSLAADAERASGFRYGHEDWLVQFKRDGAGIGLLDPQALAAAGADWNDFNRAVGDAVWILHDSLQDLPGFDELGMEPQRLFDTEIAARLLGLKRFGLAAVTEHFLGLTLAKEHSAADWSYRPLPRDWRNYAALDVELLIELETKMRAELKRQGKMEWAQEEFDYALKEGLGPRKEHLIPWMHVSHITEVMRDRQALAIVRALWTRRDELAREYDIAPTLLLSDSSIIEVAKRKPHNAAQFRSIRSINERVRIHTDSEQDKMFERYAPIQRKIKPSMWKNIIQDALALPPSEWPDVDGGAARRHESQSASAPKSIRVWKERYPERLQVLNRVRKAVSQIAEDTRTPVEIVIKPQYLRNLCWTDEPRKRDVARFLSEQGARDWQVSLVAESVSRAIEGHHHHHH
HRIPAYTLTDQNGDAFKSTAYDSSFKVYDFVFTRCGSICPEMTTQMIRVQEAFKHDKDVVLISLTVDPEHDSSEVLQRYAKQYNAIPGKWYFLTGEKDTIYTLGQRQFFLTAKQNEEDLTDFLHSERIVLVDKNGWIRGYYTGTNEKDVDRLITELKVLQKIERDAKRK
MPLDPICKKIISRDTEYFSDYGGKNYYFCSSECKHKFDALEKSVIRLKRNLSEKEKISFGKLKRDIIKPGICTLCGACAASCEYITIKDEKPELIGPCKACGVCYYQCPRTITTEEGLIGSFRYAYAAQSAIPEIKGQDGGVVTSLLLYALDEGLIDCAVVTVHSEEEPWKPVPIVAKTREEILKSSGSIYSHSMTLEALMSAVKQGMNSVAFVGTSCNIDAVTKMQKSSYGFLHLFMRAKVLKLGLFCMDTFAYEGIKAVLESYGITLDNVDAMKIRKGKFEVALKDGKEHIFELSEFDEYRSSSCRFCTDLTAENSDISFGGVGSPRGYTTVLARSAIGYEIFNEAIDNGYIEARQLTDDELEKVLNLAKMKKVQMYDLHRRQKTLEHHHHHH
MSLKLVKLETFSTEFVCFVRATAEDGAQGWGQVAPYYADITAQVLHRQVAPYALGMACEDIDAMLDIVRDREHKFPGSYLRRAMGGVDTALWDMHGRRAGKPVCVLIGGTPGPVRAYGSSMKRDITPRDEAARLVRLRDEQGFDAFKFRIGAEVGRDRDEWPGRTEEIVPTMRRAMGDDVALLVDANSCYSPARAIEVGRMLEQHGISHYEEPCPYWEFAQTKEVTDTLDLDITGGEQDCLMERWQTMIADRVVDVLQPDICYLGGLSRTLRVARMAEAAGMPITPHAANLSMVTLFTMHLLRAIPNAGKYLEFSIEGLDYYPWQQGLFTSDPYRIEEGHATVTDAPGWGVDVNPDWLARSEGHHHHHH
IQEHAIDLSQKSALVIDEELYLPELSLDTLKGLETLAPFGMNNKKPIFLLRDFTVKQVRTMGQNGAHLKLKVAQEQAVFDLLAFNYGSLVTEFQQAQHLELAVTLSVNRWNGNTSLQ
RSLIAGYDPLILDVSHGFNISEFARIANTLDDTTYTSLTPMQLLKAMDTLEGIESLRRFAAILVGGAPLRADDLRAAKELGINVVTTYGSSETSGGCVYNGRPIPGAKVRVV
MPRYCIVNADDFGYSKGVNYGILEAFQHGVVTSATLMANMPAAEHAARLAKEHPELGVGIHFVLTCGRPLADVPSLVNENGEFPRRGEALAGARRSDIERELAAQLERVFSLGLSPTHIDSHHHVHEHPNVFPVVEQLAERYRLPIRPVRTTRPHRLATVDVFFPDFYGDGLTKDHFLTLIDRIGDGQTAEVMCHPAYMDAPLAAGSSYCRQRIEELAVLTDPALSKEIAERGVQLITYREFYQL
MEDIKSLLLQCPVLAGLPVEGINEAVQIVRARHFDEKALICSKGAQHSSLMVIAKGSVRVNSISSKGKEVTLMIFETGGWFGDNVFSPGMPRIFGATAHTDVTLLELPGDKFRQLLAKYPQSYPVILDLLSRRLWSAISVIEDDAIRGIEERIGRRLLLLAEYQHNRPISAQSCVVKVTREHIANMMGLTRQSVHKVLKKLENSNVLRLQYGSITILNPLKMEAYLKQLE
